Measured values: US9120869 (UNIVERSITY OF SOUTH FLORIDA A FLORIDA NON PROFIT, dated 2015)

T1: Duffy antigen receptor for chemokines (DARC) on Duffy-positive human erythrocytes (human, UniProt Q16570 1-336)
T1 construct: whole, on cells; also called Duffy blood group antigen; Duffy antigen surface receptor
T1 sequence: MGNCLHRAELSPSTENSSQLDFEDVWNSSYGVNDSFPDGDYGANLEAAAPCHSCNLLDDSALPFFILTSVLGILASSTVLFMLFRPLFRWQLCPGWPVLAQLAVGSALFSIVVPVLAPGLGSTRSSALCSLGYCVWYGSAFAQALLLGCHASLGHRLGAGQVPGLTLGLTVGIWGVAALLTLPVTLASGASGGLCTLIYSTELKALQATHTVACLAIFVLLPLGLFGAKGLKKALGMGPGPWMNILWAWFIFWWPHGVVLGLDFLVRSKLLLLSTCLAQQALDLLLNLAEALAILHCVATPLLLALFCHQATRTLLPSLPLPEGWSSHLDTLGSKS


Experiments:
[1] = target: T1, Duffy antigen receptor for chemokines …; test: erythrocyte binding assay, Western blot
[2] = target: T1, Duffy antigen receptor for chemokines …; test: COS7 erythrocyte-binding assay (rosettes)

| Binder | binding result [1] | binding result [2] |
| --- | --- | --- |
| recombinant DBPII-Sal1 (refolded ligand domain, region II, of Plasmodium vivax Duffy binding protein, Sal1 variant) (ligand, also called recombinant Sal1; rSal1; not shown: C-terminal histidine tag from pET21a+) NHAFLQNTVMKNCNYKRKRRERDWDCNTKKDVCIPDRRYQLCMKELTNLVNNTDTNFHRDITFRKLYLKRKLIYDAAVEGDLLLKLNNYRYNKDFCKDIRWSLGDFGDIIMGTDMEGIGYSKVVENNLRSIFGTDEKAQQRRKQWWNESKAQIWTAMMYSVKKRLKGNFIWICKLNVAVNIEPQIYRWIREWGRDYVSELPTEVQKLKEKCDGKINYTDKKVCKVPPCQNACKSYDQWITRKKNQWDVLSNKFISVKNAEKVQTAGIVTPYDILKQELDEFNEVAFENEINKRDGAYIEL | binds | – |
| COS7-expressed PvDBP-RII variant Sal 1 (ligand, The (mut) plasmid differs from (original) by a PvuII to EcoRI site change; also called DBPII-Sal1 expressed on surface of COS7 cells; pEGFP-Sal 1 (original); not shown: C-terminal GFP tag (pEGFP-N1)) NHAFLQNTVMKNCNYKRKRRERDWDCNTKKDVCIPDRRYQLCMKELTNLVNNTDTNFHRDITFRKLYLKRKLIYDAAVEGDLLLKLNNYRYNKDFCKDIRWSLGDFGDIIMGTDMEGIGYSKVVENNLRSIFGTDEKAQQRRKQWWNESKAQIWTAMMYSVKKRLKGNFIWICKLNVAVNIEPQIYRWIREWGRDYVSELPTEVQKLKEKCDGKINYTDKKVCKVPPCQNACKSYDQWITRKKNQWDVLSNKFISVKNAEKVQTAGIVTPYDILKQELDEFNEVAFENEINKRDGAYIEL | – | binds |
